# From the DeepSol protein solubility set
# Experiment: soluble on expression in E. coli; label from the status in PepcDB or PDB records
row,Sequence,soluble on expression in E. coli
1,MGSDKIHHHHHHMIGNRNSTSLEIAMTEIDDITGFIPQPGPIALVLGATGGVGGAVARALAGRGYHVRALHRDAARMAAKQKERQPALEPVLEWVQGDAMNRDDVIYAAKDASVILHGVNPPGYRNWGTLVLPMIDNTIAAARASGACILMPGTIYNYGPDAFPLLNEESPQHPRTVKGEIRVELERRLEQAAGEGVRVILVRAGDFFGPEAGNNWFAQGLITPGKPVTQVNLPGKPGVSHSWAYLPDVAETFIRLLERVPDMPAFARFHMQGHVDTDGYAMAQAIQRVSGSDSVRFKRFAWWMVPLLSPILPVFRELLEMRYLWREPIALDNRRLVEVLGEEPRTRLDVAVATTLKSLKCLQTSAVHPDGSRSMASETAPQ,not soluble
2,MFTGFGAASFSAPAKAAAQTNTLSENTNQSAAELVKNLYNTAYKGEMPQQAQGLTINKSTKGDVHAAFGEPERPVGGDNRFDLYHWNMGQPGYGFSYHKDMTISEIRYFGTGVERQLNLGGVTPEVLQKQLGPVNRVLTVPFTDEIDYVYDTGRYELHFVIGTDQTADHVNLKAKLEHHHHHH,soluble
3,MSLVESLADLEEEKKKNILSSGNGEIDKRLGGGIPLGSLTLIEGENDTGKSVLCQQFVYGGLMSGHNIAYYTTENTIKSFLRQMESLSLDVSDFYAWGYLRVFPVHLEGIDWSTEQMRSILNLVANHIKTIRENIAIIDSLTMFTTYSTEDDVLEFLTRLKNLCDNGKTILITLHQHAFKEDTLVRIRSACDCHLFLRKEQVGDRYVSVLEVSKIRGARKTTGNIVSFEVHPGFGLKIIPVSEARAEGHHHHHH,soluble
4,MIMQEKIKEIASRVRELRELSEISVEKMAEYLQVSKEIYEKYENGTEDIPASILFEIAHRLQVDMATLLTGEEPRMNVFTVTRSGKGVSVERREQYRYQNLAEKFIHKKAEFFIVTVDPKPQGTKPDTNSHPGQEFNYVLEGSLKVYIHHNEIILNEGDSIYFDSNYQHAMEAMNGKTAKFLAVIM,not soluble
5,MGHHHHHHGSSSCAVSGASGCLPPARSRIFKIIVIGDSNVGKTCLTYRFCAGRFPDRTEATIGVDFRERAVDIDGERIKIQLWDTAGQERFRKSMVQHYYRNVHAVVFVYDMTNMASFHSLPAWIEECKQHLLANDIPRILVGNKCDLRSAIQVPTDLAQKFADTHSMPLFETSAKNPNDNDHVEAIFMTLAHKLKSH,soluble
6,WQGLSSKGDLPQVEITKAFFAKQADEVTLQQADVVLVLQQEDGWLYGERLRDGETGWFPEDFARFI,soluble
7,MGSDKIHHHHHHMGDKYLTLSELNLEGQLLGFVGGEPGKYKYLQLAVPSGNVEIKLPKELRRSLSLSLVPGQHIRICGHSKVDSRTSKIKIKAYRVTPIDGCPKQDLPPQIKARIMVCQKGGCLKRGGKGLLSDLEKTLCDRGLLDKVTIEHTSCQKCCNSAPNCVLHLGKKKYKNIHPDAIASLLESHLTE,not soluble
8,GAMGMQQGQMAYDRAITVFSPDGRLFQVEYAREAVKKGSTALGMKFANGVLLISDKKVRSRLIEQNSIEKIQLIDDYVAAVTSGLVADARVLVDFARISAQQEKVTYGSLVNIENLVKRVADQMQQYTQYGGVRPYGVSLIFAGIDQIGPRLFDCDPAGTINEYKATAIGSGKDAVVSFLEREYKENLPEKEAVTLGIKALKSSLEEGEELKAPEIASITVGNKYRIYDQEEVKKFL,soluble
9,MKPVKVGICGLGTVGGGTFNVLQRNAEEIARRAGRGIEVAQIAVRTPNPNCQIAGTPTTSDVFAVATNPEIDIVVELIGGYTIARDLVLKAIEHGKHVVTANKALIAVHGNEIFAKAREKGVIVAFEAAVAGGIPVIKAIREGLSANRINWVAGIINGTGNFILTEMREKGRTFPDVLAEAQALGYAEADPTFDVEGIDAAHKLTILASIAFGIPLQFDKAYTEGITKLTTADVNYAEALGYRIKHLGVARSTAQGIELRVHPTLIPADRLIANVNGVMNAVMVNGDASGSTLFYGAGAGMEPTASSVVADLVDVVRAMTSDPENRVPHLAFQPDSLSAHPILPIEACESAYYLRIQAKDHPGVLAQVASILSERGINIESIMQKEVEEHDGLVPMILLTHRVVEQRINDAIQALEALQDVVGPVVRIRVEHLN,not soluble
10,MGGGPALNRDSSRHARPFISSPVKTLAIIPAFNEAQAIGPVLGDLPDGWVDEVVVVNNASTDATKANARAAGATVVDEPQQGYGAACLRGIAYAETRQPDVVVFLDGDYSDHPEELPRLVEPIAADEADFVVGSRIRGDAEPGALLPQAQVGNRFACSLMARLWGADYTDLGPFRAIRFRDLLALDMQDETFGWTIEMQIRALEAGLRVEEVPVSYRRGIGPSKITGTLSGTVKASAKILWTIGRMAATTHRRAPRLRERVDRARTDAPTPNPGGLEHHHHHH,not soluble
11,SSDVTFLVEGRPFYAHKVLLFTASPRFKALLSSKPTNDNTCIEIGYVKYPIFQLVMQYLYYGGPESLLIKNNEIMELLSAAKFFQLEALQRHCEIICAKSINTDNCVDIYSHAKFLGVTELSAYCEGYFLKNMMVLIENEAFKQLLYDKNGEGAGQDVLQDLQRTLAIRIQSIHLSSSKGSVV,soluble
12,MTGTLLYTKNSALDRSEESGDLSPAKEFSIGPGFLKYVLRVRNEIAAAEYDMSVPTGFEADANCDYCFEQDTCMVVSGRLDQESKAGQLGEPLPEPERAYFERLYRAIEEERREVHAEYRKLWEQSAAERADDDRALVDLDPLGREPLDGGRWALSARRTSDAVSKIREGDRVLASDGHPTQGTAELATVRHLDDEIVVVADEPFELRRIDVYPSELGVDRQLTALHDAVLRGDPDRKDVLFGRREPSFVGDHRPIIDNNESQNEAVNRALAAEDFALIHGPPGTGKTYTLAQTVQALVARGDRVLLSAFTNRAVDNAIEALEAQGFTDVLRWGSESGVRDDMQSYRFDRTGDPRERAAALRDAQVVAATTAACGSRALKQQQFDVAVIDEAGQLTEPGTFLATNRADRFVLVGDHEQLPPVVRAENDLQTSLFEQLIDDYPDAAVMLDRQYRMSQRIQYFASREFYDGQLRPANAEVASQRLADLDGVDVSTLPSALRDAVSFVDPGGSADGNTNPTEADRVADIVSAYLDAGVDPDDIGVIAPFRAQVAELSRRIDEVTVDTVDRFQGSSKEVIIVSFVATGELSSPIFEDYRRVNVALTRAKKALVLVGDATALRSVPFYERMLEWAGLEHHHHHH,not soluble
13,SNAMDIVSVALQRYSTKAFDPSKKLTAEEADKIKTLLQYSPSSTNSQPWHFIVASTEEGKARVAKSAAGNYTFNERKMLDASHVVVFCAKTAMDDAWLERVVDQEDADGRFATPEAKAANDKGRRFFADMHRVSLKDDHQWMAKQVYLNVGNFLLGVAAMGLDAVPIEGFDAEVLDAEFGLKEKGYTSLVVVPVGHHSVEDFNAGLPKSRLPLETTLTEV,soluble
14,MVVQSDGSPEAASYTLIHFWAAYDGESRAGNVRWSRYFAKRPDSRVRYVGVSMDKNLSVFTNTLAFDQIDLSAQRLVENSKRDQMLNIYGLKIRFHSYLVDAHGIIRAVDPNPDQLETIL,not soluble
15,MGSDKIHHHHHHMKCSQCNKKLCYTGKDCKKDITQKIIEEYKKEENLKIAEVSAYIEATYYMKKTRLEEIIEFCKLMEYKKIGIAFCIGLENEAKILAKILSKHFEVYSVCCKVCGIDKDVFKFKKINKGEKEAMCNPIGQAEILNEIGTDLNIIVGLCIGHDILFQKYSKAPTTTFIVKDRVLSHNTAGAIYTKYYLKKLLEGK,not soluble
16,MKKVAIIGAGIVGATAAYYLSKEKDIAVTVFDDGFGQATKAAAGIICPWFSKRRHKAWYRLARLGADFYQTLLSDLKRDACKVDFYEQSGAFLLKNKAESLDELFEIGQKRKSQSPLIGHLEIQKRADLTGLLADLVGFDRCIYASGAARVEGASLTEALLNASHAKMVNKKVGLQVLSDGNYRVNGKKYTAVLLACGAWLPQILEPLGYKIDIRPQKGQLRDYFFNSEDTEKFPVIMPEGEVDIIPFAHGKVSVGASHENDHGFDLQIDNSVLDKMEKEAQTYFPKLKEATSKNERVGTRAYTRDFAPFFGRVTGLANVYAASGLGSSGLTTGPLIGNQLVKMLLDKELDIQASDYSPDKYIVKNSLEHHHHHH,not soluble
